Results: patent US6375945B1, “Adjuvant compositions for vaccines” (SmithKline Beecham Biologicals s.a., priority 1997, dated 2002)

B1: IL-7: cytokine (protein, UniProt P13232 26-177, looked up)
Interleukin-7: DCDIEGKDGKQYESVLMVSIDQLLDSMKEIGSNCLNNEFNFFKRHICDANKEGMFLFRAARKLRQFLKMNSTGDFDLHLLKVSEGTTILLNCTGQVKGRKPAALGEAQPTKSLEENKSLKEQKKLNDLCFLKRLLQEIKTCWNKILMGTKEH
B2: IL12: murine IL12 purified from the supernatant of transfected P1HTR cells; heterodimeric cytokine (protein, UniProt P43431 23-215; P43432 23-335, looked up)
Interleukin-12 subunit alpha: RVIPVSGPARCLSQSRNLLKTTDDMVKTAREKLKHYSCTAEDIDHEDITRDQTSTLKTCLPLELHKNESCLATRETSSTTRGSCLPPQKTSLMMTLCLGSIYEDLKMYQTEFQAINAALQNHNHQQIILDKGMLVAIDELMQSLNHNGETLRQKPPVGEADPYRVKMKLCILLHAFSTRVVTINRVMGYLSSA
Interleukin-12 subunit beta: MWELEKDVYVVEVDWTPDAPGETVNLTCDTPEEDDITWTSDQRHGVIGSGKTLTITVKEFLDAGQYTCHKGGETLSHSHLLLHKKENGIWSTEILKNFKNKTFLKCEAPNYSGRFTCSWLVQRNMDLKFNIKSSSSSPDSRAVTCGMASLSAEKVTLDQRDYEKYSVSCQEDVTCPTAEETLPIELALEARQQNKYENYSTSFFIRDIIKPDPPKNLQMKPLKNSQVEVSWEYPDSWSTPHSYFSLKFFVRIQRKKEKMKETEEGCNQKGAFLVEKTSTEVQCKGGNVCVQAQDRYYNSSCSKWACVPCRVRS
B3: IFN-γ: cytokine (protein, UniProt P01579 24-161, looked up)
Interferon gamma: QDPYVKEAENLKKYFNAGHSDVADNGTLFLGILKNWKEESDRKIMQSQIVSFYFKLFKNFKDDQSIQKSVETIKEDMNVKFFNSNKKKRDDFEKLTNYSVTDLNVQRKAIHELIQVMAELSPAAKTGKRKRSQMLFRG

How the values were obtained:
[1] = Enhancement of the effect of the QS21/MPL adjuvant by other cytokines
[2] = test system: P1983 cells; assay: IL12 dose curve: CTL activity in mice receiving peptide P198 + DQS21/3D-MPL + various doses of IL12; assay type: in vivo, DBA/2 mice; settings: with P198 peptide and DQS21/3D-MPL
Procedure: DBA/2 mice were injected s.c. in the two footpads with 50 μg of P198 peptide ([…]), corresponding to the antigen expressed by the P198 TUM—clone (Sibille et al., J. Exp. Med., 1990: 172, 35-45), mixed with the DQS21/3D-MPL adjuvant (adjuvant) 100 μl final. […] This murine IL12 was purified from the supernatant of transfected P1HTR cells as described in Gajewski et al. (J. Immunol. 1995, 154: 5637-5648). […] On day 16, the mice were bled and stimulation of blood lymphocytes was performed by mixing 3×10^5 Ficoll purified lymphocytes with […] stimulating cells (100 Gy) and 2×10^6 irradiated normal syngeneic spleen cells (30 Gy) as feeder cells. The stimulating cells were P1983 cells, an azaguanine-resistant variant derived from the P198 TUM-clone. The cells were incubated in 48-well plates in a final volume of 0,8 ml MLTC medium described in Warnier et al. (Int. J. Cancer, 1996, 67, 303-310). Seven days later, CTL activity was measured in a standard chromium-release assay using 1,000 5^1Cr-labelled targets. […] Specific lytic units were calculated by subtracting the values obtained with the negative targets (usually less than 0,3 LU) from those obtained with the positive target. Mice were scored as ± when the LU detected were comprised between 0,1 and 1; + when LU were comprised between 1 and 10; and ++ above 10 LU. […]

[3] = mouse, in vivo

| Molecule | enhancement of the effect of the QS21/MPL adjuvant [1] | effect of IL12 on CTL activity ([2]; IL12 dose/mouse/day 10 ng (100U)) | effect of IL12 on CTL activity ([2]; IL12 only 30 ng (so in the source)) | systemic toxicity [3] |
| --- | --- | --- | --- | --- |
| GM-CSF: cytokine | unable to enhance |  |  |  |
| IL-6: cytokine | unable to enhance |  |  |  |
| B1 | unable to enhance |  |  |  |
| B2 |  | nearly fully maintained | disappeared | largely reduced but not totally absent |
| B3 | unable to enhance |  |  |  |
